The source of these data is paper PMC10120838, “Dual functions of PsmiR172b-PsTOE3 module in dormancy release and flowering in tree peony (Paeonia suffruticosa)”.

For this data set, the target named is PsTOE3 (MBP-PsTOE3; PsAP2 in primer table) (Paeonia suffruticosa, UniProt A0A189CP77 1-510). In words: EMSA; poly(dI-dC); DIG Gel Shift Kit (Roche) per manufacturer, probe 0.155 uM, poly(dI-dC); protein suspended in 20 mM Tris-HCl, 0.2 M NaCl, 1 mM EDTA, 10 mM beta-mercaptoethanol; pH and temperature not stated. The settings on record: protein: recombinant, purified on Ni-NTA, label: DIG, blunt. A general note: Mobility shift assays separate free from complexed probe on a gel.
Chain of PsTOE3 (MBP-PsTOE3; PsAP2 in primer table) (A0A189CP77 entry or part of it): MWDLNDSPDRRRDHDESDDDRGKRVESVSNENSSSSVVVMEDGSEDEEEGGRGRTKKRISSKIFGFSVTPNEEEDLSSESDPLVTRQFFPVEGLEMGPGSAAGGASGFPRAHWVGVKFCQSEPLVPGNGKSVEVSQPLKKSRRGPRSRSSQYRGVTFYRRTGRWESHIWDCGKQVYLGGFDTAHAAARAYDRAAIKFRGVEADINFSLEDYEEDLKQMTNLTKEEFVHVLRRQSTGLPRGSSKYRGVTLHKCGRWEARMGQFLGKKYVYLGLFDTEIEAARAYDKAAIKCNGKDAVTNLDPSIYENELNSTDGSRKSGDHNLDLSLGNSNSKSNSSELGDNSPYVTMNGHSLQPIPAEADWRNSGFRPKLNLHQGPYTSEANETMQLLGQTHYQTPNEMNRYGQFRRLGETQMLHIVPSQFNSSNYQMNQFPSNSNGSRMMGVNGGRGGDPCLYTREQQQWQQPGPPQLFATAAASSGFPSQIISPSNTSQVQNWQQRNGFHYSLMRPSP

B1: C-repeat probe of PsEBB1 (4x ACCGAC) (dsDNA)
DNA 1: AACCGACACCGACACCGACACCGAC
DNA 2: GTCGGTGTCGGTGTCGGTGTCGGTT
Regarding B1, the binding result (R oligo S209 is printed as the plain complement (3'-5' order) although the header says 5'-3') is “binds”.

B2: mutant C-repeat probe (4x AGCGAC) (dsDNA)
DNA 1: AAGCGACAGCGACAGCGACAGCGAC
DNA 2: GTCGCTGTCGCTGTCGCTGTCGCTT
For B2, the binding result (R oligo S211 is printed as the plain complement (3'-5' order) although the header says 5'-3') is “no binding”.
